This passage reports pKd results from publication PMC9482650, “Quantitative fragmentomics allow affinity mapping of interactomes” (Nature Communications, 2022).

To fix the notation:
T1: DFNB31_3, Q9P202
T1 sequence (Q9P202 811-907, limits assumed, looked up): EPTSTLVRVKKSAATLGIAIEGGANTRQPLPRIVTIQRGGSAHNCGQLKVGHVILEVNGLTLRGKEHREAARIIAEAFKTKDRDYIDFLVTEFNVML

T2: DLG3_2, Q92796
T2 sequence (Q92796 221-321, limits assumed, looked up): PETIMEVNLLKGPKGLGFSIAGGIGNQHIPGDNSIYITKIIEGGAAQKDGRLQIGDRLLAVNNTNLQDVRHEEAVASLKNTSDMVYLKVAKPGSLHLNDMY

T3: DVL3, Q92997
T3 sequence (Q92997 244-331, limits assumed, looked up): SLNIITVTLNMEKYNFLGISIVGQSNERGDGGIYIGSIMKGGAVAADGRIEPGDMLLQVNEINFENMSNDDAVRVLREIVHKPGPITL

T4: GRIP1_5, Q9Y3R0
T4 sequence (Q9Y3R0 568-668, limits assumed, looked up): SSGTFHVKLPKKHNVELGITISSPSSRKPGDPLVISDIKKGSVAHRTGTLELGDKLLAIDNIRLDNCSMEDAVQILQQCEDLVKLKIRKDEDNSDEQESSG

T5: LIN7C, Q9NUP9
T5 sequence (Q9NUP9 88-185, limits assumed, looked up): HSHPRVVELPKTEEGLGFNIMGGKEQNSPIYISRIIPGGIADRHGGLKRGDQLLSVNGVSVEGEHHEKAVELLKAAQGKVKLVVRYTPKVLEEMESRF

T6: LNX2_2, Q8N448
T6 sequence (Q8N448 334-432, limits assumed, looked up): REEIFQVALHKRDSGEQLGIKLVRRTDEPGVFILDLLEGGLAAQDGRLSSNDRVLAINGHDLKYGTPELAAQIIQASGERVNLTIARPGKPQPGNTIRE

T7: MPDZ_5, O75970
T7 sequence (O75970 695-796, limits assumed, looked up): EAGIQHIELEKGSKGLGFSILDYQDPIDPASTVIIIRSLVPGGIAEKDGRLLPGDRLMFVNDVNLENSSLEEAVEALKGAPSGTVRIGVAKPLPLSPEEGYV

T8: NHERF3_3, Q5T2W1
T8 sequence (Q5T2W1 238-333, limits assumed, looked up): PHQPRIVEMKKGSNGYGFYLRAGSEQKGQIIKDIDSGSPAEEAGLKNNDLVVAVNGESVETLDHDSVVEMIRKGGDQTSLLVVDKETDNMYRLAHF

T9: SHANK1, Q9Y566
T9 sequence (Q9Y566 658-767, limits assumed, looked up): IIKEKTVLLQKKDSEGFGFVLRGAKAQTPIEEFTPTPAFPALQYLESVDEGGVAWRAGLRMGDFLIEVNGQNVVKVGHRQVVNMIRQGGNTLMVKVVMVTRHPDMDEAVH

T10: SIPA1L2, Q9P2F8
T10 sequence (Q9P2F8 945-1036, limits assumed, looked up): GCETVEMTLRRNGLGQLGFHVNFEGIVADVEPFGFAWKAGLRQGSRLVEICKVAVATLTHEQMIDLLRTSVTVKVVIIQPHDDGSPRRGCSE

Chain of FRMPD2_3, Q68DX3 (Q68DX3 1073-1166): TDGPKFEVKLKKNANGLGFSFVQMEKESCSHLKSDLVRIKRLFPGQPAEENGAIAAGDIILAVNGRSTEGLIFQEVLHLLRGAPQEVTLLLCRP
Chain of LNX1_2, Q8TBB1 (Q8TBB1 371-470): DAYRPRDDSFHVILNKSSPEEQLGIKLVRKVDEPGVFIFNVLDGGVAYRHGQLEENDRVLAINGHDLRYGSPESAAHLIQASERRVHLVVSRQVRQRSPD
Chain of GORASP1, Q9BQQ3 (Q9BQQ3 1-208): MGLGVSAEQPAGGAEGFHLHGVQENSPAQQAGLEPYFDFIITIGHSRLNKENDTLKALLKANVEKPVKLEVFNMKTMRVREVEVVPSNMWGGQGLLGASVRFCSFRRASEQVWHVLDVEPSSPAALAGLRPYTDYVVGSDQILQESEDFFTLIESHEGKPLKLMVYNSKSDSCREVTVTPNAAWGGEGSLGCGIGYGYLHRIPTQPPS
Chain of FRMPD4, Q14CM0 (Q14CM0 67-160): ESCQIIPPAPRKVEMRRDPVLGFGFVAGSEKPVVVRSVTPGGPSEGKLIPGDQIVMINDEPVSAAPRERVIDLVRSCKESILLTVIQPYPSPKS
Chain of AHNAK1, Q09666 (Q09666 4-100): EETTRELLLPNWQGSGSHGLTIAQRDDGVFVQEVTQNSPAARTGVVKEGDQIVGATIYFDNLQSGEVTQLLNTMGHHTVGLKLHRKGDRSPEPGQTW

One assay addresses AHNAK1, Q09666. The assay is described as follows: holdup assay. The following applies: plain residues with an end cap or a label only (N-terminal biotin on a linker: ado-ado). Further details: key: below the threshold = too weak to quantify, mostly under pKd 3.1 to 4.
The term pKd denotes −log10 of the Kd, conventionally taken in molar units. Consider KRPEMTSSSV [MUC3A, MUC3B, Q02505;Q9H195], for which the negative-log Kd (pKd) entry is on record as “below the threshold”.

As for KSRVAFFEEL [NF2, P35240;P35240-1], the pKd entry is recorded as “below the threshold”.

The target of a further assay is T1, DFNB31_3, Q9P202. The assay is described as follows: holdup assay. Further details: key: below the threshold = too weak to quantify, mostly under pKd 3.1 to 4. The following applies: plain residues with an end cap or a label only (N-terminal biotin on a linker: ado-ado).
Regarding KRPEMTSSSV [MUC3A, MUC3B, Q02505;Q9H195], the pKd entry is on record as “below the threshold”.

As for KSRVAFFEEL [NF2, P35240;P35240-1], the pKd result is “below the threshold”.

A further assay concerns the target T2, DLG3_2, Q92796. Kind of assay: holdup assay. More on the design: key: below the threshold = too weak to quantify, mostly under pKd 3.1 to 4. The following applies: plain residues with an end cap or a label only (N-terminal biotin on a linker: ado-ado).
KRPEMTSSSV [MUC3A, MUC3B, Q02505;Q9H195] showed a negative-log Kd (pKd) of 4.26.

Regarding KSRVAFFEEL [NF2, P35240;P35240-1], the pKd entry was “below the threshold”.

For the next assay, the target named is T3, DVL3, Q92997. Kind of assay: holdup assay. Further details: key: below the threshold = too weak to quantify, mostly under pKd 3.1 to 4. The following applies: plain residues with an end cap or a label only (N-terminal biotin on a linker: ado-ado).
KRPEMTSSSV [MUC3A, MUC3B, Q02505;Q9H195]: the pKd entry is “below the threshold”.

A further assay addresses FRMPD2_3, Q68DX3. The assay is described as follows: holdup assay. More on the design: key: below the threshold = too weak to quantify, mostly under pKd 3.1 to 4. As to conditions: plain residues with an end cap or a label only (N-terminal biotin on a linker: ado-ado).
For the molecule KRPEMTSSSV [MUC3A, MUC3B, Q02505;Q9H195], the pKd entry is “below the threshold”.

For the molecule KSRVAFFEEL [NF2, P35240;P35240-1], the pKd result was “below the threshold”.

A further assay addresses FRMPD4, Q14CM0. The assay is described as follows: holdup assay. More on the design: key: below the threshold = too weak to quantify, mostly under pKd 3.1 to 4. As to conditions: plain residues with an end cap or a label only (N-terminal biotin on a linker: ado-ado).
As to KRPEMTSSSV [MUC3A, MUC3B, Q02505;Q9H195], the pKd result is listed as “below the threshold”.

Consider KSRVAFFEEL [NF2, P35240;P35240-1], for which the pKd is 4.17.

Another assay addresses GORASP1, Q9BQQ3. The assay is described as follows: holdup assay. More on the design: key: below the threshold = too weak to quantify, mostly under pKd 3.1 to 4. The following applies: plain residues with an end cap or a label only (N-terminal biotin on a linker: ado-ado).
With KRPEMTSSSV [MUC3A, MUC3B, Q02505;Q9H195], the pKd result is “below the threshold”.

In the case of KSRVAFFEEL [NF2, P35240;P35240-1], the pKd worked out at 4.06.

The target of a further assay is GORASP2, Q9H8Y8. The assay is described as follows: holdup assay. More on the design: key: below the threshold = too weak to quantify, mostly under pKd 3.1 to 4. As to conditions: plain residues with an end cap or a label only (N-terminal biotin on a linker: ado-ado).
As for KRPEMTSSSV [MUC3A, MUC3B, Q02505;Q9H195], the pKd result is given as “below the threshold”.

For a further assay, the target named is GRID2IP_1, A4D2P6. Kind of assay: holdup assay. The following applies: plain residues with an end cap or a label only (N-terminal biotin on a linker: ado-ado). More on the design: key: below the threshold = too weak to quantify, mostly under pKd 3.1 to 4.
Chain of GRID2IP_1, A4D2P6 (A4D2P6 1-87): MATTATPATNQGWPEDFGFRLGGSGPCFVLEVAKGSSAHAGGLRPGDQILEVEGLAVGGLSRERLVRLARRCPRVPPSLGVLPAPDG
For the molecule KRPEMTSSSV [MUC3A, MUC3B, Q02505;Q9H195], the pKd result is on record as “below the threshold”.

Turning to KSRVAFFEEL [NF2, P35240;P35240-1], the pKd result is recorded as “below the threshold”.

Another assay deals with T4, GRIP1_5, Q9Y3R0. The assay is described as follows: holdup assay. More on the design: key: below the threshold = too weak to quantify, mostly under pKd 3.1 to 4. The following applies: plain residues with an end cap or a label only (N-terminal biotin on a linker: ado-ado).
With KRPEMTSSSV [MUC3A, MUC3B, Q02505;Q9H195], the pKd result is “below the threshold”.

The target in a further assay is GRIP2_3, Q9C0E4. The assay is described as follows: holdup assay. Further details: key: below the threshold = too weak to quantify, mostly under pKd 3.1 to 4. The following applies: plain residues with an end cap or a label only (N-terminal biotin on a linker: ado-ado).
Chain of GRIP2_3, Q9C0E4 (Q9C0E4 238-339): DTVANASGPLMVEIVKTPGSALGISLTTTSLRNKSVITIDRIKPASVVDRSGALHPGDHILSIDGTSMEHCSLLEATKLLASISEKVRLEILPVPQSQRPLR
In the case of KRPEMTSSSV [MUC3A, MUC3B, Q02505;Q9H195], the pKd entry is “below the threshold”.

Take KSRVAFFEEL [NF2, P35240;P35240-1]: the pKd entry is “below the threshold”.

In a further assay the target is Inadl_2, Q8NI35. The assay is described as follows: holdup assay. Further details: key: below the threshold = too weak to quantify, mostly under pKd 3.1 to 4. The following applies: plain residues with an end cap or a label only (N-terminal biotin on a linker: ado-ado).
Chain of Inadl_2, Q8NI35 (Q8NI35 238-335): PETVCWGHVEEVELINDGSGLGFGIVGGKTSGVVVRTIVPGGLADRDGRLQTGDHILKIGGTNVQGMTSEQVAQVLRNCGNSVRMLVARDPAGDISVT
Regarding KRPEMTSSSV [MUC3A, MUC3B, Q02505;Q9H195], the negative-log Kd (pKd) result is reported as “below the threshold”.

Regarding KSRVAFFEEL [NF2, P35240;P35240-1], the pKd entry is listed as “below the threshold”.

For a further assay, the target named is T5, LIN7C, Q9NUP9. The assay is described as follows: holdup assay. More on the design: key: below the threshold = too weak to quantify, mostly under pKd 3.1 to 4. As to conditions: plain residues with an end cap or a label only (N-terminal biotin on a linker: ado-ado).
On to KSRVAFFEEL [NF2, P35240;P35240-1], for which the pKd entry was “below the threshold”.

Another assay concerns the target LNX1_2, Q8TBB1. Kind of assay: holdup assay. Further details: key: below the threshold = too weak to quantify, mostly under pKd 3.1 to 4. As to conditions: plain residues with an end cap or a label only (N-terminal biotin on a linker: ado-ado).
As for KRPEMTSSSV [MUC3A, MUC3B, Q02505;Q9H195], the pKd result is listed as “below the threshold”.

As for KSRVAFFEEL [NF2, P35240;P35240-1], the negative-log Kd (pKd) result is “below the threshold”.

The target in the next assay is T6, LNX2_2, Q8N448. The assay is described as follows: holdup assay. Further details: key: below the threshold = too weak to quantify, mostly under pKd 3.1 to 4. The following applies: plain residues with an end cap or a label only (N-terminal biotin on a linker: ado-ado).
Take KSRVAFFEEL [NF2, P35240;P35240-1]: the negative logarithm of the Kd (pKd) entry is on record as “below the threshold”.

The next assay deals with MAGI3_2, Q5TCQ9. Kind of assay: holdup assay. More on the design: key: below the threshold = too weak to quantify, mostly under pKd 3.1 to 4. The following applies: plain residues with an end cap or a label only (N-terminal biotin on a linker: ado-ado).
Chain of MAGI3_2, Q5TCQ9 (Q5TCQ9 398-503): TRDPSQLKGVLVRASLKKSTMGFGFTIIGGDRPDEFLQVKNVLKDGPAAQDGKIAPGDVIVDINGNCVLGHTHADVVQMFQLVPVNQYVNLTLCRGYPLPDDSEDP
In turn, KRPEMTSSSV [MUC3A, MUC3B, Q02505;Q9H195] displayed a negative logarithm of the Kd (pKd) of 3.86.

For KSRVAFFEEL [NF2, P35240;P35240-1], the pKd entry is “below the threshold”.

The target in a further assay is T7, MPDZ_5, O75970. Kind of assay: holdup assay. More on the design: key: below the threshold = too weak to quantify, mostly under pKd 3.1 to 4. The following applies: plain residues with an end cap or a label only (N-terminal biotin on a linker: ado-ado).
For the molecule KRPEMTSSSV [MUC3A, MUC3B, Q02505;Q9H195], the pKd entry is recorded as “below the threshold”.

On to KSRVAFFEEL [NF2, P35240;P35240-1], for which the pKd result is given as “below the threshold”.

The target of another assay is T8, NHERF3_3, Q5T2W1. The assay is described as follows: holdup assay. More on the design: key: below the threshold = too weak to quantify, mostly under pKd 3.1 to 4. As to conditions: plain residues with an end cap or a label only (N-terminal biotin on a linker: ado-ado).
For KRPEMTSSSV [MUC3A, MUC3B, Q02505;Q9H195], the pKd result was “below the threshold”.

KSRVAFFEEL [NF2, P35240;P35240-1]: the pKd entry was “below the threshold”.

In the next assay the target is PICK1, Q9NRD5. The assay is described as follows: holdup assay. As to conditions: plain residues with an end cap or a label only (N-terminal biotin on a linker: ado-ado). More on the design: key: below the threshold = too weak to quantify, mostly under pKd 3.1 to 4.
Chain of PICK1, Q9NRD5 (Q9NRD5 17-115): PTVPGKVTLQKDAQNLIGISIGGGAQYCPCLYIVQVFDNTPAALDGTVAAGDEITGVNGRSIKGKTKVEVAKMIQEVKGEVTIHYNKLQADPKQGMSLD
Regarding KSRVAFFEEL [NF2, P35240;P35240-1], the pKd entry is reported as “below the threshold”.

The target of the next assay is SCRIB_2, Q14160. Kind of assay: holdup assay. Further details: key: below the threshold = too weak to quantify, mostly under pKd 3.1 to 4. The following applies: plain residues with an end cap or a label only (N-terminal biotin on a linker: ado-ado).
Chain of SCRIB_2, Q14160 (Q14160 857-960): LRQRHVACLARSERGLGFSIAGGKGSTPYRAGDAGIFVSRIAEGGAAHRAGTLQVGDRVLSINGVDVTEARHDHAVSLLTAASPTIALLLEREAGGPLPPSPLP
In the case of KSRVAFFEEL [NF2, P35240;P35240-1], the pKd result is listed as “below the threshold”.

In another assay the target is T9, SHANK1, Q9Y566. Kind of assay: holdup assay. Further details: key: below the threshold = too weak to quantify, mostly under pKd 3.1 to 4. The following applies: plain residues with an end cap or a label only (N-terminal biotin on a linker: ado-ado).
Take KRPEMTSSSV [MUC3A, MUC3B, Q02505;Q9H195]: the pKd came out at 3.92.

On to KSRVAFFEEL [NF2, P35240;P35240-1], for which the pKd result is reported as “below the threshold”.

The target in another assay is T10, SIPA1L2, Q9P2F8. Kind of assay: holdup assay. More on the design: key: below the threshold = too weak to quantify, mostly under pKd 3.1 to 4. As to conditions: plain residues with an end cap or a label only (N-terminal biotin on a linker: ado-ado).
KRPEMTSSSV [MUC3A, MUC3B, Q02505;Q9H195]: the negative logarithm of the Kd (pKd) entry was “below the threshold”.

On to KSRVAFFEEL [NF2, P35240;P35240-1], for which the pKd entry is reported as “below the threshold”.
